Assay results from patent publication US20090053807A1 (Novo Nordisk A/S, priority 1998, published 2009).

B1: H2C-9aa-H2C: MBP fusion, H2C dimer peptide with 9 amino acid linker (protein)
chain: NNNNLGIEGRISEFIEGRAQPAMAFHENFYDWFVRQVSGGSGGSGGSFHENFYDWFVRQVSAAAGAPVPYPDPLEPRAA
modifications: left off: large carriers; small tags and cut ends
B2: RP30-IGF-12-D112: dimer peptide (Site 1-Site 1) (peptide)
chain: ADYKDSFYSCLESLVNGGAERSDGQWEGCRGGSGGSGGSGGSCWARPCGDAANFYDWFVQQASKKAAAGAPVPYPDPLEPRPG
B3: D112-12-RP30-IGF: dimer peptide (Site 1-Site 1) (peptide)
chain: ADYKDCWARPCGDAANFYDWFVQQASKKGGSGGSGGSGGSSFYSCLESLVNGGAERSDGQWEGCRAAAGAPVPYPDPLEPRPG
B4: H2C-3aa-H2C: MBP fusion, H2C dimer peptide (Site 1-Site 1) with 3 amino acid linker (protein)
chain: NNNNLGIEGRISEFIEGRAQPAMAFHENFYDWFVRQVSGGSFHENFYDWFVRQVSAAAGAPVPYPDPLEPRAA
modifications: left off: large carriers; small tags and cut ends

Key:
[1] = target: insulin receptor construct transfected into 32D cells (Homo sapiens, UniProt P06213); experiment: IR autophosphorylation assay in IR transfected 32D cells (ELISA); details: MBP fusion peptides, FIG. 30
MCF-7 cells = experiment: MCF-7 cell proliferation assay, agonist format; format: cell-based, human; details: MCF-7 and MiaPaCa cell proliferation (Tables 27-28)

Molecule | stimulation of autophosphorylation of IR [1] | IGF-1R agonist activity (MCF-7 cells)
B1 | active | 
B2 |  | IGF-1R agonist activity
B3 |  | IGF-1R agonist activity
B4 | active | 
